This note sets out measurements from the supplement of paper PMC11780869.

The first series has as its system Bacillus subtilis. Kind of series: cleaved RNA product abundance (RNA/gDNA barcode ratio) relative to median wild-type variant (ratio to wild type); higher = more accumulation of the downstream cleavage product. The following applies: experiment (reporter, strain, medium): exp 2b: truncated aprE reporter, strain BJT200; cleavage site: cggR-gapA (positions -7 to +36 mutated). Put shortly: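 Reporter mRNAs based on truncated aprE or tetM carried barcoded, mutagenized RNase Y cleavage-site windows built from oligos with a 9% error rate and were integrated into the B. subtilis chromosome. Cultures grew in LB at 37°C from OD600 0.0003 to 0.3. Cleaved RNA was gel-selected, reverse transcribed and barcode-sequenced together with genomic DNA barcodes, and UMIs were collapsed. Cleaved product abundance is the per-construct ratio of RNA to gDNA barcodes, scaled to the median of constructs carrying the unmutated site.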
Take “ACAGACGAAGGAGCCGCAAAGAAGTTCTTAAGGGATGAAGAATCCCTCAATATAAATATCTCTCACTTATTTAAA”: the “cleaved RNA product abundance” value is 0.14.

As to “ACAGACGAAGGAGCCGCAAAGAAGTTCTTAAGGGATGAATAATCCCACAATATAAATATCTCTCACTTATTTAAA”, the “cleaved RNA product abundance” value was 0.119.

On to “ACAGACGAAGGAGCCGCAAAGAAGTTCTTAAGGGATGAATAATCCCTAAATATAAATATCTCTCACTTATTTAAA”, for which the “cleaved RNA product abundance” value was 0.236.

“ACAGACGAAGGAGCCGCAAAGAAGTTCTTAAGGGATGAATAATCCCTCAATATAAAAATCTCTCACTTATTTAAA”: the “cleaved RNA product abundance” value was 0.181.

As for “ACAGACGAAGGAGCCGCAAAGAAGTTCTTAAGGGATGAATAATCCCTCAATATAAATATCTCTCACTTATTTAAA”, the “cleaved RNA product abundance” value stood at 0.168.

“ACAGACGAAGGAGCCGCAAAGAAGTTCTTAAGGGATGAATAATCCTTCAATATAAATATCTCTCACTTATTTAAA”: the “cleaved RNA product abundance” value came to 0.139.

On to “ACAGACGAAGGAGCCGCAAAGAAGTTCTTAAGGGATGAATAATGCCTCAATATAAATATCTCTCACTTATTTAAA”, for which the “cleaved RNA product abundance” value turned out to be 0.0955.

With “ACAGACGAAGGAGCCGCAAAGAAGTTCTTAAGGGATGAATGATCCCTCAATATAAATATCTCTCACTTATTTAAA”, the “cleaved RNA product abundance” value stood at 0.107.

Regarding “ACAGACGAAGGAGCCGCAAAGAAGTTCTTAAGTGATGAATAATCCCTCAATATAAATATCTCTCACTTATTTAAA”, the “cleaved RNA product abundance” value amounted to 0.0656.

For “ACAGACGAAGGAGCCGCAAAGAAGTTGTAAAGGGATGAATAATCCCTCAATATAAATATCTCTCACTTATTTAAA”, the “cleaved RNA product abundance” value is 0.272.

Still in this series, the particulars now being: experiment (reporter, strain, medium): exp 4a: truncated aprE reporter, strain BJT201 with 2% xylose (RNase J1 expressed); cleavage site: cggR-gapA (positions -7 to +36 mutated).
As for “ACAGACGAAGGAGCCGCAAAGAAGTTCTTAAGGGATGAATAATACCTCAATATAAATATCTCTCACTTATTTAAA”, the “cleaved RNA product abundance” value was determined as 0.14.

With “ACAGACGAAGGAGCCGCAAAGAAGTTCTTAAGGGATGAATAATCCATCAATATAAATATCTCTCACTTATTTAAA”, the “cleaved RNA product abundance” value worked out at 0.199.

On to “ACAGACGAAGGAGCCGCAAAGAAGTTCTTAAGGGATGAATAATCCCTAAATATAAATATCTCTCACTTATTTAAA”, for which the “cleaved RNA product abundance” value turned out to be 0.193.

With “ACAGACGAAGGAGCCGCAAAGAAGTTCTTAAGGGATGAATAATCCCTCAAAATAAATATCTCTCACTTATTTAAA”, the “cleaved RNA product abundance” value stood at 0.182.

Regarding “ACAGACGAAGGAGCCGCAAAGAAGTTCTTAAGGGATGAATAATCCCTCAATATAAATAACTCTCACTTATTTAAA”, the “cleaved RNA product abundance” value came to 0.162.

As to “ACAGACGAAGGAGCCGCAAAGAAGTTCTTAAGGGATGAATAATCCCTCAATATAAATATCTCTCACTTATTTAAA”, the “cleaved RNA product abundance” value was 0.254.

For “ACAGACGAAGGAGCCGCAAAGAAGTTCTTAAGGGATGAATAATCCCTCAATTTAAATATCTCTCACTTATTTAAA”, the “cleaved RNA product abundance” value turned out to be 0.0838.

“ACAGACGAAGGAGCCGCAAAGAAGTTCTTAAGGGATGAATAATCTCTCAATATAAATATCTCTCACTTATTTAAA”: the “cleaved RNA product abundance” value was 0.199.

Consider “ACAGACGAAGGAGCCGCAAAGAAGTTCTTAAGGGATGAATATTCCCTCAATATAAATATCTCTCACTTATTTAAA”, for which the “cleaved RNA product abundance” value came to 0.245.

On to “ACAGACGAAGGAGCCGCAAAGAAGTTCTTAAGGGATGAATTATCCCTCAATATAAATATCTCTCACTTATTTAAA”, for which the “cleaved RNA product abundance” value is 0.126.

For the sequence “ACAGACGAAGGAGCCGCAAAGAAGTTCTTAAGGGATTAATAATCCCTCAATATAAATATCTCTCACTTATTTAAA”, the “cleaved RNA product abundance” value is 0.301.

For the sequence “ACAGACGAAGGAGCCGCAAAGAAGTTCTTAAGGTATGAATAATCCCTCAATATAAATATCTCTCACTTATTTAAA”, the “cleaved RNA product abundance” value is 0.145.

For the sequence “ACAGACGAAGGAGCCGCAAAGAAGTTCTTAAGTGATGAATAATCCCTCAATATAAATATCTCTCACTTATTTAAA”, the “cleaved RNA product abundance” value stood at 0.0965.

For “ACAGACGAAGGAGCCGCAAAGAAGTTCTTAATGGATGAATAATCCCTCAATATAAATATCTCTCACTTATTTAAA”, the “cleaved RNA product abundance” value worked out at 0.119.

On to “ACAGACGAAGGAGCCGCAAAGAAGTTCTTCAGGGATGAATAATCCCTCAATATAAATATCTCTCACTTATTTAAA”, for which the “cleaved RNA product abundance” value came to 0.262.

On to “ACAGACGAAGGAGCCGCAAAGAAGTTGTTAAAGGATGAATAATCCCTCAATATAAATATCTCTCACTTATTTAAA”, for which the “cleaved RNA product abundance” value turned out to be 0.0874.

Consider “ACAGACGAAGGAGCCGCAAAGAAGTTGTTAAGAGATGAATAATCCCTCAATATAAATATCTCTCACTTATTTAAA”, for which the “cleaved RNA product abundance” value turned out to be 0.103.

The series is the same for the next values; noted with them: experiment (reporter, strain, medium): exp 6: tetM reporter, strain 168; cleavage site: cggR-gapA (positions -7 to +36 mutated).
Consider “ACAGACGAAGGAGCCGCAAAGAAGTTCTTAAGGGATGAATAATCCCTCAATATAAATATCTCTCACTTATTTAAA”, for which the “cleaved RNA product abundance” value amounted to 0.299.
